Measured values published in publication PMC9381698, “Generation of synthetic antibody fragments with optimal complementarity determining region lengths for Notch-1 recognition” (Frontiers in Microbiology, 2022).

Experiments:
[1] = target: T1, recombinant Fc-tag-fused human Notch-1 extracellular domain (Homo sapiens, UniProt P46531); assay: ELISA; multi-point Fab-ELISA: target immobilised at 5 ug/ml on MaxiSorp plates; purified Fab 0.01 nM-1 uM in PT for 30 min; detected with HRP-conjugated anti-HIS antibody; EC50 from a one-site specific-binding fit; conditions: both partners purified
T1 construct: Notch-1, human, extracellular domain; No catalogue number and no residue limits are printed; also called N1; source: bought: R&D Systems
T1 sequence (P46531 19-1735): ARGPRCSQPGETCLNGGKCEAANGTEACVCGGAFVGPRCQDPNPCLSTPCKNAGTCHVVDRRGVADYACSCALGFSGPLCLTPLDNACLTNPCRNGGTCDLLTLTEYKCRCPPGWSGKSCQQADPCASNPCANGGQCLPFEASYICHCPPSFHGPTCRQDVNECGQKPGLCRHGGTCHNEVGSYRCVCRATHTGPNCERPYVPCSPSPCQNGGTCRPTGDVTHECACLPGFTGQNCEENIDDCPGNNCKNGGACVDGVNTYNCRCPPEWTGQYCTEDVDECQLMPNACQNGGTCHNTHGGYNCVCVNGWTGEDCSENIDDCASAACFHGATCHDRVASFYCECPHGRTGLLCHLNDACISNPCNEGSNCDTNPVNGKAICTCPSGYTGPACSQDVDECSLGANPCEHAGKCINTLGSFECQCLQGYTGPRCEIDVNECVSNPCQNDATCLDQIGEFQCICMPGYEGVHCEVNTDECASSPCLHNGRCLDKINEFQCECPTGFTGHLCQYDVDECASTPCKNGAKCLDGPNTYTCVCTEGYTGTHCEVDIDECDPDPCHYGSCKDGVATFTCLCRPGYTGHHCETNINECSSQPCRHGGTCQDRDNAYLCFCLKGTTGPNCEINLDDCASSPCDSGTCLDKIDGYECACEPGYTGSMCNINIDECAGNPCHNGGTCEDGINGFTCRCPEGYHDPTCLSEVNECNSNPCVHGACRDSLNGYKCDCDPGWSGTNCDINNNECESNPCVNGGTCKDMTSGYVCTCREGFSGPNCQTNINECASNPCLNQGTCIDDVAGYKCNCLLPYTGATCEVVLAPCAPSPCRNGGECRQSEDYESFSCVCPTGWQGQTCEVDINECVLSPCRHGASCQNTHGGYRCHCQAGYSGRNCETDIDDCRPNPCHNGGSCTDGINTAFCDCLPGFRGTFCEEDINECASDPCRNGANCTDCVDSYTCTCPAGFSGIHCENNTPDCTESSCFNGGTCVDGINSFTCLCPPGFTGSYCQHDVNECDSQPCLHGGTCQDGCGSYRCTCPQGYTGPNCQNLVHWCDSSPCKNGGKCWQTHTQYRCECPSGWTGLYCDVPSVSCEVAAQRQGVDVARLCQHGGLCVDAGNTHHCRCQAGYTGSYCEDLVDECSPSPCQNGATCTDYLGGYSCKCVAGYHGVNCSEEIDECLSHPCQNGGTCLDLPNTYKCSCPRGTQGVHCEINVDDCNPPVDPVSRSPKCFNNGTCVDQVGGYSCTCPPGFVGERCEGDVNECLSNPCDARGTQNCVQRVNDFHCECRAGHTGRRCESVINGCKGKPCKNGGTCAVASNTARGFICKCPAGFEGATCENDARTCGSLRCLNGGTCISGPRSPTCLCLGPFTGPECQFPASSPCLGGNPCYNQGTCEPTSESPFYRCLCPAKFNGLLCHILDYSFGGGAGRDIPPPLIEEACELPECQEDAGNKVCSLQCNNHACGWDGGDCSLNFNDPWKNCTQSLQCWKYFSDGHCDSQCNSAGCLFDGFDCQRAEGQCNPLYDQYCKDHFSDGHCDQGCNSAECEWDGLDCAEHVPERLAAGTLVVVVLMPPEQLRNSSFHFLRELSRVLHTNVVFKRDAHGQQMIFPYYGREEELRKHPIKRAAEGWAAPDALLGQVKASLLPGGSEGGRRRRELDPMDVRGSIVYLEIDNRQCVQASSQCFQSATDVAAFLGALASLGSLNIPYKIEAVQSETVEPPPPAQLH

[2] = target: T1, recombinant Fc-tag-fused human Notch-1 …; assay: BLI; Octet RED384; Fabs immobilised on amine-reactive generation-2 or anti-Fab CH1 biosensors, target proteins in solution at three or more concentrations; 25 C, PBS; global 1:1 fit; apparent KD (Fc-Notch proteins may dimerize, avidity); conditions: both partners purified
[3] = target: T1, recombinant Fc-tag-fused human Notch-1 …; assay: ELISA; phage-ELISA: Notch-1 and control proteins immobilised at 5 ug/ml on MaxiSorp plates; phage-displayed Fab at 10^12 PFU/ml in PBT for 30 min; detected with HRP-conjugated anti-M13 antibody, Abs450; conditions: one partner purified
[4] = target: T2, recombinant Fc-tag-fused human Notch-1 extracellular domain (Homo sapiens, UniProt P46531); assay: BLI; Fabs immobilised on amine-reactive generation-2 or anti-Fab CH1 biosensors, target proteins in solution at at least three concentrations; 25°C, PBS; global fit to a 1:1 binding model; apparent constants (Fc fusions may dimerize); conditions: both partners purified
T2 construct: Notch-1, human, extracellular domain; the R&D Systems product may hold only part of the ectodomain (surmise); also called N1; Fc-Notch; source: bought: R&D Systems
T2 sequence (P46531 19-1735): as above

[5] = target: T3, Jagged-2 receptor ectodomain (Homo sapiens (assumed), UniProt Q9Y219); assay: ELISA; single-point Fab-ELISA for specificity: proteins immobilised at 5 ug/ml on MaxiSorp plates; purified Fab at 1 uM; detected with HRP-conjugated anti-HIS antibody, Abs450; conditions: both partners purified
T3 construct: Jagged-2 ectodomain; it may be an Fc fusion like the Notch proteins; also called J2
T3 sequence (Q9Y219 27-1080): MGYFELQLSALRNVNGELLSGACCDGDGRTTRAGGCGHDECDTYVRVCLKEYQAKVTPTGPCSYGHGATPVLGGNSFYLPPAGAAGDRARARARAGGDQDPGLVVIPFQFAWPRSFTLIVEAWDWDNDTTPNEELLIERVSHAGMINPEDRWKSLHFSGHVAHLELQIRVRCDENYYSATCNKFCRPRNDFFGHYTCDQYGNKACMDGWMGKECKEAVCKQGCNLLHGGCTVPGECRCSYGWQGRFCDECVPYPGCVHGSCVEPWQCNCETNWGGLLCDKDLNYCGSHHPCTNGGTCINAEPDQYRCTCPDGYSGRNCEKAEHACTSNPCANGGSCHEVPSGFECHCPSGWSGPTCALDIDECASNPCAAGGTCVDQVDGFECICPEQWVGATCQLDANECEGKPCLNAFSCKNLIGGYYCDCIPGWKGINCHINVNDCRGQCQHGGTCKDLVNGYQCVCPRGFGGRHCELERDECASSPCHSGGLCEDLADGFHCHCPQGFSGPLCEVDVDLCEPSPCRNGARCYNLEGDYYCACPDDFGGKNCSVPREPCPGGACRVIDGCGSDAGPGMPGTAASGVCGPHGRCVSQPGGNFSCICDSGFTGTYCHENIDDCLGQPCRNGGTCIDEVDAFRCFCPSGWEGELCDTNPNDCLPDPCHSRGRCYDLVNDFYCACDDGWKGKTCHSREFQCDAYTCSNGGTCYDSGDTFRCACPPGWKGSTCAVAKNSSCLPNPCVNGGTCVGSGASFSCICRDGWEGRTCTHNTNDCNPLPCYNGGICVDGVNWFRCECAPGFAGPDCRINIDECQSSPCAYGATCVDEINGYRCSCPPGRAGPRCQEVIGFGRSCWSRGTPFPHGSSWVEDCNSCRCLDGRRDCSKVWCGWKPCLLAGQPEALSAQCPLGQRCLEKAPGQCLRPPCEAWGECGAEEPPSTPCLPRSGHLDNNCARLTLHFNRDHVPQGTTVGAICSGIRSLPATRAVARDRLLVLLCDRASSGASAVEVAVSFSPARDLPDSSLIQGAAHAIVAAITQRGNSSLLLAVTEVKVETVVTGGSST

Binder	EC50 [1] [nM]	Kd [2] [nM]	fold weaker phage-ELISA signal than the high-frequency Fabs [3] [fold]	koff [4] [s⁻¹]	kon [4] [M⁻¹ s⁻¹]	binding result [5]
Fab N1/F/1 (purified soluble Fab) (Fab, V domains shown, light chain on the modified trastuzumab framework of Library-F (Persson et al., 2013); CDRs L1 and L2 fixed; Fab heavy chain on the modified trastuzumab framework of Library-F; short CDRH3; The Fab is detected by an anti-HIS antibody; source: E. coli BL21, purified (Protein-L resin)) VH: EVQLVESGGGLVQPGGSLRLSCAASGFNISSYSMHWVRQAPGKGLEWVAYISSSYGSTYYADSVKGRFTISADTSKNTAYLQMNSLRAEDTAVYYCARSWALDYWGQGTLVTVSS VL: DIQMTQSPSSLSASVGDRVTITCRASQSVSSAVAWYQQKPGKAPKLLIYSASSLYSGVPSRFSGSRSGTDFTLTISSLQPEDFATYYCQQYWGPITFGQGTKVEIK	~4	0.45 ± 0.05	–	–	–	–
phage-displayed Fab N1/F/R3 (Fab, V domains shown, as the light chain of m16; as the heavy chain of m16; Reconstructed by Kunkel mutagenesis in the MBP phagemid) VH: EVQLVESGGGLVQPGGSLRLSCAASGFNIYSSYMHWVRQAPGKGLEWVASIYPYYGYTSYADSVKGRFTISADTSKNTAYLQMNSLRAEDTAVYYCARYFSYGPFYYGSGLDYWGQGTLVTVSS VL: DIQMTQSPSSLSASVGDRVTITCRASQSVSSAVAWYQQKPGKAPKLLIYSASSLYSGVPSRFSGSRSGTDFTLTISSLQPEDFATYYCQQGFSLITFGQGTKVEIK	–	–	~10	–	–	–
Fab N1/F/R3 (Fab, V domains shown, Library-F rare Fab reconstructed from NGS information, modified trastuzumab framework; Library-F rare Fab reconstructed from NGS information, modified trastuzumab framework, CDRs L1 and L2 fixed; The Fab has a His tag (detected with anti-HIS antibody and biosensors); Library-F framework: Persson et al., 2013; source: E. coli BL21, purified (Protein-L resin)) VH: EVQLVESGGGLVQPGGSLRLSCAASGFNIYSSYMHWVRQAPGKGLEWVASIYPYYGYTSYADSVKGRFTISADTSKNTAYLQMNSLRAEDTAVYYCARYFSYGPFYYGSGLDYWGQGTLVTVSS VL: DIQMTQSPSSLSASVGDRVTITCRASQSVSSAVAWYQQKPGKAPKLLIYSASSLYSGVPSRFSGSRSGTDFTLTISSLQPEDFATYYCQQGFSLITFGQGTKVEIK	–	–	–	0.000484	85300	–
Fab N1/F/1 (Fab, V domains shown, Library-F Fab on a modified trastuzumab framework; Library-F Fab on a modified trastuzumab framework, CDRs L1 and L2 fixed; The Fab has a His tag (detected with anti-HIS antibody and biosensors); Library-F framework: Persson et al., 2013; source: E. coli BL21, purified (Protein-L resin)) VH: EVQLVESGGGLVQPGGSLRLSCAASGFNISSYSMHWVRQAPGKGLEWVAYISSSYGSTYYADSVKGRFTISADTSKNTAYLQMNSLRAEDTAVYYCARSWALDYWGQGTLVTVSS VL: DIQMTQSPSSLSASVGDRVTITCRASQSVSSAVAWYQQKPGKAPKLLIYSASSLYSGVPSRFSGSRSGTDFTLTISSLQPEDFATYYCQQYWGPITFGQGTKVEIK	–	–	–	0.000118	296000	–
Fab N1/F/R3 (purified soluble Fab) (Fab, V domains shown, light chain on the modified trastuzumab framework of Library-F (Persson et al., 2013); CDRs L1 and L2 fixed; clone reconstructed from NGS information; Fab heavy chain on the modified trastuzumab framework of Library-F; medium CDRH3 length; The Fab is detected by an anti-HIS antibody; source: E. coli BL21, purified (Protein-L resin)) VH: EVQLVESGGGLVQPGGSLRLSCAASGFNIYSSYMHWVRQAPGKGLEWVASIYPYYGYTSYADSVKGRFTISADTSKNTAYLQMNSLRAEDTAVYYCARYFSYGPFYYGSGLDYWGQGTLVTVSS VL: DIQMTQSPSSLSASVGDRVTITCRASQSVSSAVAWYQQKPGKAPKLLIYSASSLYSGVPSRFSGSRSGTDFTLTISSLQPEDFATYYCQQGFSLITFGQGTKVEIK	37	6.6	–	–	–	binds
Fab N1/F/2 (purified soluble Fab) (Fab, V domains shown, light chain on the modified trastuzumab framework of Library-F (Persson et al., 2013); CDRs L1 and L2 fixed; Fab heavy chain on the modified trastuzumab framework of Library-F; short CDRH3; The Fab is detected by an anti-HIS antibody; source: E. coli BL21, purified (Protein-L resin)) VH: EVQLVESGGGLVQPGGSLRLSCAASGFNLSSYSIHWVRQAPGKGLEWVASISSSYGYTYYADSVKGRFTISADTSKNTAYLQMNSLRAEDTAVYYCARGYYAFDYWGQGTLVTVSS VL: DIQMTQSPSSLSASVGDRVTITCRASQSVSSAVAWYQQKPGKAPKLLIYSASSLYSGVPSRFSGSRSGTDFTLTISSLQPEDFATYYCQQWWSFPLITFGQGTKVEIK	~4	0.45 ± 0.05	–	–	–	–
Fab N1/F/2 (Fab, V domains shown, Library-F Fab on a modified trastuzumab framework; Library-F Fab on a modified trastuzumab framework, CDRs L1 and L2 fixed; The Fab has a His tag (detected with anti-HIS antibody and biosensors); Library-F framework: Persson et al., 2013; source: E. coli BL21, purified (Protein-L resin)) VH: EVQLVESGGGLVQPGGSLRLSCAASGFNLSSYSIHWVRQAPGKGLEWVASISSSYGYTYYADSVKGRFTISADTSKNTAYLQMNSLRAEDTAVYYCARGYYAFDYWGQGTLVTVSS VL: DIQMTQSPSSLSASVGDRVTITCRASQSVSSAVAWYQQKPGKAPKLLIYSASSLYSGVPSRFSGSRSGTDFTLTISSLQPEDFATYYCQQWWSFPLITFGQGTKVEIK	–	–	–	0.000123	322000	–
Fab N1/F/3 (Fab, V domains shown, Library-F Fab on a modified trastuzumab framework; Library-F Fab on a modified trastuzumab framework, CDRs L1 and L2 fixed; The Fab has a His tag (detected with anti-HIS antibody and biosensors); Library-F framework: Persson et al., 2013; source: E. coli BL21, purified (Protein-L resin)) VH: EVQLVESGGGLVQPGGSLRLSCAASGFNLYSYYIHWVRQAPGKGLEWVASISSYYGYTSYADSVKGRFTISADTSKNTAYLQMNSLRAEDTAVYYCARYWHGALDYWGQGTLVTVSS VL: DIQMTQSPSSLSASVGDRVTITCRASQSVSSAVAWYQQKPGKAPKLLIYSASSLYSGVPSRFSGSRSGTDFTLTISSLQPEDFATYYCQQGYFTYLFTFGQGTKVEIK	–	–	–	0.000218	122000	–
Fab N1/F/3 (purified soluble Fab) (Fab, V domains shown, light chain on the modified trastuzumab framework of Library-F (Persson et al., 2013); CDRs L1 and L2 fixed; Fab heavy chain on the modified trastuzumab framework of Library-F; short CDRH3; The Fab is detected by an anti-HIS antibody; source: E. coli BL21, purified (Protein-L resin)) VH: EVQLVESGGGLVQPGGSLRLSCAASGFNLYSYYIHWVRQAPGKGLEWVASISSYYGYTSYADSVKGRFTISADTSKNTAYLQMNSLRAEDTAVYYCARYWHGALDYWGQGTLVTVSS VL: DIQMTQSPSSLSASVGDRVTITCRASQSVSSAVAWYQQKPGKAPKLLIYSASSLYSGVPSRFSGSRSGTDFTLTISSLQPEDFATYYCQQGYFTYLFTFGQGTKVEIK	~4	1.88	–	–	–	binds
